Experimental data taken from US20250026792A1, “SELF-ASSEMBLING PEPTIDES WITH HYALURONIC ACID BINDING DOMAINS AND METHODS OF USE THEREOF” (Northwestern University, priority 2022, published 2025).
Entries after “also recorded” stand apart in the source; their conditions may differ. Values belong to the molecule of their own block, whether it stands above or below them. The star is where a group is joined. Biotin = O=C1N[C@H]2[C@H](CS[C@H]2CCCCC(=O)*)N1

Experiments:
[1] = Concentration-dependent peptide binding to hyaluronic acid coating (biotin-streptavidin fluorescence)
How it was run: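 N-terminally biotinylated peptides at 0, 1, 2.5, 5 and 10 mg/ml were incubated overnight at 37 °C in PBS, pH 7.4, on dried hyaluronic acid coatings (10 μg/cm^2), then washed three times in PBS. Groups compared with scrambled control by ANOVA with Tukey post-hoc, n=4.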

[2] = ECM specificity binding test, hyaluronic acid coating; settings: 5.0 mg/ml peptide, FIG. 4
Procedure: (§1) Peptides were incubated 24 hours at 37° C. on collagens I-IV, elastin, hyaluronic acid, and Geltrex. Coatings (10 pig/cm^2) were previously dried overnight in milli-Q water. Overall significance was assessed using analysis of variance, with Tukey's multiple comparison post-hoc analysis between ECM groups where n=4.
(§2) Hyaluronic acid, collagens I, II, III, and IV, elastin, and Geltrex were coated onto 96-well black plates (medium binding affinity) at 10 μg/cm^2 and were dried in milli-Q water at room temperature. N-termini biotinylated peptides were added to coated plates at 0, 1, 2.5, 5 and 10 mg/ml overnight at 37° C. in phosphate buffered saline (PBS), pH 7.4, after which the plates were washed three times with PBS. Fluorescent streptavidin-488 (4 μg/mL) was added to each well and incubated at 37° C. temperature for 24 hours, then thoroughly washed with PBS. The plates were read with a fluorescence microplate reader for fluorescence intensity (Ex 490 nm, Em 525 nm). All data were normalized to the background fluorescence intensity of Streptavidin-488.

collagen type II = biological target: T1, collagen type II (Gallus gallus, UniProt P02460); test: ECM specificity binding test, collagen type II coating; parameters: species or system chicken; settings: 5.0 mg/ml peptide, FIG. 4
T1 construct: purchased Sigma-Aldrich
T1 sequence (P02460 whole entry): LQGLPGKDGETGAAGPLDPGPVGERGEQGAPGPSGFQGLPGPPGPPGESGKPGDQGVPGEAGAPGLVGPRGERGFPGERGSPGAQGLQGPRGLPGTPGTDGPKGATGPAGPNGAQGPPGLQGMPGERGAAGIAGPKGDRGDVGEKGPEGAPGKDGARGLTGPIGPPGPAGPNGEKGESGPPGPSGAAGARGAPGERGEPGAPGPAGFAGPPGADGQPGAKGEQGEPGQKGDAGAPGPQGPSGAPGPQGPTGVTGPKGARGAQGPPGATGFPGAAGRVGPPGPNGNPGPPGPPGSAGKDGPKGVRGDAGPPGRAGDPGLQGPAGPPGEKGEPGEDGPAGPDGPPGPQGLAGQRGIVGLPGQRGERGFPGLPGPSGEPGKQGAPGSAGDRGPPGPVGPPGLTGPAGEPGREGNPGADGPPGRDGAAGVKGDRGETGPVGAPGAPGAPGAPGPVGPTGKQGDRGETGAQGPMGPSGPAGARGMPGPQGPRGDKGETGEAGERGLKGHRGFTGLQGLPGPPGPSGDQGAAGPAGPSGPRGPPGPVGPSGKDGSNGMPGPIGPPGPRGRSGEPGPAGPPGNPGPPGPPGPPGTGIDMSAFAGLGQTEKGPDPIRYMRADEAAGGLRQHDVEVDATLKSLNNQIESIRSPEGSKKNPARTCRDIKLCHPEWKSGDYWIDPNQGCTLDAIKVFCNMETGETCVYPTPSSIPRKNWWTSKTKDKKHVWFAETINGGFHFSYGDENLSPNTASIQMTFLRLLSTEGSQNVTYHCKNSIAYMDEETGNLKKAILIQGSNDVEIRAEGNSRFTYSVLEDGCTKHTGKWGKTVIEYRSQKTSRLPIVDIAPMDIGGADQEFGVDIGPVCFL
Procedure: as §1
(§3) Biotinylated peptides were custom synthesized by ABI Scientific, Inc. (Sterling, VA). Uranyl acetate and TEM grids were from Ted Pella, Inc (Redding, CA). Unless specified otherwise, all water used in these experiments was Milli-Q grade. HA (˜1 MDa), collagen types I (rat), II (chicken), III (human), and IV (mouse), elastin (bovine), deuterium oxide (D2O), acetic acid-d4, sodium acetate-d3, 3-(Trimethylsilyl)propionic-2,2,3,3-d6 (DSS-D6) acid sodium salt, and 2,2,2-trifluoroethanol (TFE) and were obtained from Sigma-Aldrich (St. Louis, MO). Streptavidin (Alexa Fluor 488 conjugate) and Geltrex were obtained from Thermo Fisher Scientific Inc. (Waltham, MA). […]
(§4) Hyaluronic acid, collagens I, II, III, and IV, elastin, and Geltrex were coated onto 96-well black plates (medium binding affinity) at 10 μg/cm^2 and were dried in milli-Q water at room temperature. […] The plates were read with a fluorescence microplate reader for fluorescence intensity (Ex 490 nm, Em 525 nm). All data were normalized to the background fluorescence intensity of Streptavidin-488.

collagen type IV = biological target: T2, collagen type IV (Mus musculus, UniProt P02463+P08122); test: ECM specificity binding test, collagen type IV coating; settings: 5.0 mg/ml peptide, FIG. 4
T2 construct: purchased Sigma-Aldrich
T2 sequence (P02463 173-1669): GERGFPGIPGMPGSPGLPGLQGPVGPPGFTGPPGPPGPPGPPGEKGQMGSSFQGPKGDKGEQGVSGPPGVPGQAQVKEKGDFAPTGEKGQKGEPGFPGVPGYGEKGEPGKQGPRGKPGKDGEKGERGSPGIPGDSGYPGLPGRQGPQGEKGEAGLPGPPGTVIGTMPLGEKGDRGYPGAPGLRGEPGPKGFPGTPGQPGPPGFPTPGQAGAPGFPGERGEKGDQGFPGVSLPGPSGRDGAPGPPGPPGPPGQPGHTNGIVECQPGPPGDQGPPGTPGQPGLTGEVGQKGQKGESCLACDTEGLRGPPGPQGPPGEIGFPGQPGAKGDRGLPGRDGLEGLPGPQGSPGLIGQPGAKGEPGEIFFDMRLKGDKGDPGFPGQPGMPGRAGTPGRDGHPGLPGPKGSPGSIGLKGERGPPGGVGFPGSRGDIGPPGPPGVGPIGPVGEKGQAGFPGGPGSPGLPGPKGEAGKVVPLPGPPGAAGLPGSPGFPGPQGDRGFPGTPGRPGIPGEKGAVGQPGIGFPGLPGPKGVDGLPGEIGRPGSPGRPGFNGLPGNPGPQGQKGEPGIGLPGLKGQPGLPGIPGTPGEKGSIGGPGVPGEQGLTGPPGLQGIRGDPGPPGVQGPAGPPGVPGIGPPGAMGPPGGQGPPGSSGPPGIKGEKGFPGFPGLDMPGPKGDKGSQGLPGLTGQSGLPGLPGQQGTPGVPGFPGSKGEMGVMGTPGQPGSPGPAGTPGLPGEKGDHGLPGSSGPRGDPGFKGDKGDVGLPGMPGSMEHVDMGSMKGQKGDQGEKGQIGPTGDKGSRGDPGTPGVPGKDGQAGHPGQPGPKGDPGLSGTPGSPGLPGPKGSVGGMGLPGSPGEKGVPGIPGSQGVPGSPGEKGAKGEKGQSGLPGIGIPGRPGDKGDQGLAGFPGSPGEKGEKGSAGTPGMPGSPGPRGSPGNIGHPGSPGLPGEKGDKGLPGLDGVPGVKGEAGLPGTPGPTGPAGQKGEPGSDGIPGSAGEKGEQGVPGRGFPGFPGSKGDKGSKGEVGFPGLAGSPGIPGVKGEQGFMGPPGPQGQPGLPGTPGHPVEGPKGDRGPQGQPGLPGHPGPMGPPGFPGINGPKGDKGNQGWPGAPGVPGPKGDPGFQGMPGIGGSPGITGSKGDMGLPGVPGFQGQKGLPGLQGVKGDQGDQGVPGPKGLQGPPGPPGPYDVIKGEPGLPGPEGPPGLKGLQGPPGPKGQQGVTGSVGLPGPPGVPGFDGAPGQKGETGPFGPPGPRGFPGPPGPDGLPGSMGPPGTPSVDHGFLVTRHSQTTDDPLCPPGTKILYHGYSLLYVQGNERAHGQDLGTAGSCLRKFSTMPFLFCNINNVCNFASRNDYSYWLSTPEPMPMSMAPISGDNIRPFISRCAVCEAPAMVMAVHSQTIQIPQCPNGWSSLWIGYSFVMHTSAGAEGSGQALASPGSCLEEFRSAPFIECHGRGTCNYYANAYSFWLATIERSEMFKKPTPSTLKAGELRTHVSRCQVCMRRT
T2 sequence (P08122 29-1707 limits assumed): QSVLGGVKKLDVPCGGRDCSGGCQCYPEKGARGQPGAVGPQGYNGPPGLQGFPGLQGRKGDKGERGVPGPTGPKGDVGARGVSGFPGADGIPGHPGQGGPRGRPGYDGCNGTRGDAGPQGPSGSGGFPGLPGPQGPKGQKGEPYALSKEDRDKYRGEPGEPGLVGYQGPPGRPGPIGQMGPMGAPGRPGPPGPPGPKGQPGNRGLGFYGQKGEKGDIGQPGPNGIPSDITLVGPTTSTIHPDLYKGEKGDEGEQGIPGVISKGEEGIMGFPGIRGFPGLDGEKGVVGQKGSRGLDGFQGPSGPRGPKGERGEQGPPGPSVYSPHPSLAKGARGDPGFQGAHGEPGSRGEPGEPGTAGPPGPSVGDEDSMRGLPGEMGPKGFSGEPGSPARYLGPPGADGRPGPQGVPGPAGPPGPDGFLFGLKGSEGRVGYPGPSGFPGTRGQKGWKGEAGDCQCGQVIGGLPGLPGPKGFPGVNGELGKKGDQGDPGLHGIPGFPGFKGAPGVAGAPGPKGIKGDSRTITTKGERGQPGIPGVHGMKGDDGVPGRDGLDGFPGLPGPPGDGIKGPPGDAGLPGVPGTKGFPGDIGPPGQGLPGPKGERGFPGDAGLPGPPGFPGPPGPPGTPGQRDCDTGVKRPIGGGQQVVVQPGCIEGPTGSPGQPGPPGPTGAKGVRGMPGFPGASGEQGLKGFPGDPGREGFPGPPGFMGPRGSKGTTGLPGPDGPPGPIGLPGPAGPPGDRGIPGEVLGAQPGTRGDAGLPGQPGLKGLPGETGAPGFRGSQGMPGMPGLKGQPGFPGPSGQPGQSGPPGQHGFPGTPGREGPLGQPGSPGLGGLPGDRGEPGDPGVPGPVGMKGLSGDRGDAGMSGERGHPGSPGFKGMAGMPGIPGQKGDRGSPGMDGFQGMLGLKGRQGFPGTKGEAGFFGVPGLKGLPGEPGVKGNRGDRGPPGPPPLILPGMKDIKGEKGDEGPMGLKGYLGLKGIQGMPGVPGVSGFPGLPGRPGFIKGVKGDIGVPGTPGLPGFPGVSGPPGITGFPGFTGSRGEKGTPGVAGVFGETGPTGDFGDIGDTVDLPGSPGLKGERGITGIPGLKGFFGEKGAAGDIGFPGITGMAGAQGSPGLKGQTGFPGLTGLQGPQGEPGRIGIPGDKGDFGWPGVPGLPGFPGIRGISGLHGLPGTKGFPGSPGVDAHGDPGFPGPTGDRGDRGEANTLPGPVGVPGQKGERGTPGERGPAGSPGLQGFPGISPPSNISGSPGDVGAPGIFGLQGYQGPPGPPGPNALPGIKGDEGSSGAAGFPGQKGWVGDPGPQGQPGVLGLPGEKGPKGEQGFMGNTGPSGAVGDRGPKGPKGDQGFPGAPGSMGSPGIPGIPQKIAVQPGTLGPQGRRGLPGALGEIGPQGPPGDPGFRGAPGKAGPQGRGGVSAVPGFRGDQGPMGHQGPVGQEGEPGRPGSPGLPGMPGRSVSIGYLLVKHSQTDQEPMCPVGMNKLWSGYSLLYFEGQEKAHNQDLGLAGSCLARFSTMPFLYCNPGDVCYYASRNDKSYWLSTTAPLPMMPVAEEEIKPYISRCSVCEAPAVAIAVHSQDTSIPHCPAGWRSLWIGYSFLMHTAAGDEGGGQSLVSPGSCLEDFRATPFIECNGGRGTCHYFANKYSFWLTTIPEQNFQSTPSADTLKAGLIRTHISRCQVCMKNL
Procedure: as §1, §3, §4

elastin = biological target: T3, elastin (Bos taurus, UniProt P04985); test: ECM specificity binding test, elastin coating; parameters: species or system bovine; settings: 5.0 mg/ml peptide, FIG. 4
T3 construct: purchased Sigma-Aldrich
T3 sequence (P04985 27-747): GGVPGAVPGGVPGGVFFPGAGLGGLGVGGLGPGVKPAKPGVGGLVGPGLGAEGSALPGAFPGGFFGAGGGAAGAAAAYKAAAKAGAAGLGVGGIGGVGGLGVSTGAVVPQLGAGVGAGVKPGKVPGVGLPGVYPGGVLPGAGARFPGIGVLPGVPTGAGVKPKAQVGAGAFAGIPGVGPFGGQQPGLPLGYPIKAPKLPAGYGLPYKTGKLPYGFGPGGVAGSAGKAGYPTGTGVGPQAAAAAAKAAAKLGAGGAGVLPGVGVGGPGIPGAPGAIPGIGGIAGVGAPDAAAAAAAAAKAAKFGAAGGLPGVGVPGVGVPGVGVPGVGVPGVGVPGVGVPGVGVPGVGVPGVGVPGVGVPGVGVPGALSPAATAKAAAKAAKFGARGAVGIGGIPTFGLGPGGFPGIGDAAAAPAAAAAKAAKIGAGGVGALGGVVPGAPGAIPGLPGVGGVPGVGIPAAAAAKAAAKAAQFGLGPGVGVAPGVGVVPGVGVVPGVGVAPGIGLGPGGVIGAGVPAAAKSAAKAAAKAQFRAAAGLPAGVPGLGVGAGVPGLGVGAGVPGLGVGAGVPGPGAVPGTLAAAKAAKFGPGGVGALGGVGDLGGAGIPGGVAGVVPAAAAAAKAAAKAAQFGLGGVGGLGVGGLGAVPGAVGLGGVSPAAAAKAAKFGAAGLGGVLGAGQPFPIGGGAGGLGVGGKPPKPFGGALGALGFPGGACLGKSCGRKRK
Procedure: as §1
Biotinylated peptides were custom synthesized by ABI Scientific, Inc. (Sterling, VA). Uranyl acetate and TEM grids were from Ted Pella, Inc (Redding, CA). Unless specified otherwise, all water used in these experiments was Milli-Q grade. HA (˜1 MDa), collagen types I (rat), II (chicken), III (human), and IV (mouse), elastin (bovine), deuterium oxide (D2O), acetic acid-d4, sodium acetate-d3, 3-(Trimethylsilyl)propionic-2,2,3,3-d6 (DSS-D6) acid sodium salt, and 2,2,2-trifluoroethanol (TFE) and were obtained from Sigma-Aldrich (St. Louis, MO). Streptavidin (Alexa Fluor 488 conjugate) and Geltrex were obtained from Thermo Fisher Scientific Inc. (Waltham, MA). Sodium hyaluronate (5 and 60 KDa) was purchased from Lifecore Biomedical LLC (Chaska, MN). In reference to terminology, N and C termini is used to describe the amino terminal (N) and the carboxyl terminal (C) of the peptide. The biotinylated peptides are used in every experiment.
as §2

Geltrex = test: ECM specificity binding test, Geltrex coating; settings: 5.0 mg/ml peptide, FIG. 4
Procedure: as §1, §3, §4

[3] = system: extracellular matrix (ECM) components: Collagen type I, II, III and IV, elastin, hyaluronic acid and Geltrex; test: ECM specificity binding test, whole panel; settings: 5.0 mg/ml peptide, FIG. 4
[4] = Circular dichroism (CD) of peptides; assay type: physicochemical; settings: 20 mM Sodium Cacodylate; for Ellipticity ratio (222 nm/208 nm) / Ellipticity 208 nm / Ellipticity 222 nm: 1.25 mg/mL; for Ellipticity 208 nm / Ellipticity 222 nm: CD data given as [θ]M×10^−3; for wavelength Minimum of CD profile: 5.0 mg/mL
[5] = Transmission electron microscopy (TEM) of peptide nanostructures; assay type: physicochemical; settings: for TEM characterization, Phosphate Buffered Saline (i): PBS pH 7.4, 0.5% w/v, 30 minutes sonication, 24 hrs at 37° C.
Procedure: The sample and stain were filter-dried in between steps. Samples were collected 24 hours at 37° C. after 30 minutes of sonication. All TEM was performed on a Philips FEI Technai Spirit G2 electron microscope. Peptides were incubated in both PBS and SC.

collagen type I = biological target: T4, collagen type I (Rattus norvegicus, UniProt P02454+P02466); test: ECM specificity binding test, collagen type I coating; settings: 5.0 mg/ml peptide, FIG. 4
T4 construct: purchased Sigma-Aldrich
Procedure: as §1, §3, §4

collagen type III = biological target: T5, collagen type III (Homo sapiens, UniProt P02461); test: ECM specificity binding test, collagen type III coating; settings: 5.0 mg/ml peptide, FIG. 4
T5 construct: purchased Sigma-Aldrich
T5 sequence (P02461 154-1221 limits assumed): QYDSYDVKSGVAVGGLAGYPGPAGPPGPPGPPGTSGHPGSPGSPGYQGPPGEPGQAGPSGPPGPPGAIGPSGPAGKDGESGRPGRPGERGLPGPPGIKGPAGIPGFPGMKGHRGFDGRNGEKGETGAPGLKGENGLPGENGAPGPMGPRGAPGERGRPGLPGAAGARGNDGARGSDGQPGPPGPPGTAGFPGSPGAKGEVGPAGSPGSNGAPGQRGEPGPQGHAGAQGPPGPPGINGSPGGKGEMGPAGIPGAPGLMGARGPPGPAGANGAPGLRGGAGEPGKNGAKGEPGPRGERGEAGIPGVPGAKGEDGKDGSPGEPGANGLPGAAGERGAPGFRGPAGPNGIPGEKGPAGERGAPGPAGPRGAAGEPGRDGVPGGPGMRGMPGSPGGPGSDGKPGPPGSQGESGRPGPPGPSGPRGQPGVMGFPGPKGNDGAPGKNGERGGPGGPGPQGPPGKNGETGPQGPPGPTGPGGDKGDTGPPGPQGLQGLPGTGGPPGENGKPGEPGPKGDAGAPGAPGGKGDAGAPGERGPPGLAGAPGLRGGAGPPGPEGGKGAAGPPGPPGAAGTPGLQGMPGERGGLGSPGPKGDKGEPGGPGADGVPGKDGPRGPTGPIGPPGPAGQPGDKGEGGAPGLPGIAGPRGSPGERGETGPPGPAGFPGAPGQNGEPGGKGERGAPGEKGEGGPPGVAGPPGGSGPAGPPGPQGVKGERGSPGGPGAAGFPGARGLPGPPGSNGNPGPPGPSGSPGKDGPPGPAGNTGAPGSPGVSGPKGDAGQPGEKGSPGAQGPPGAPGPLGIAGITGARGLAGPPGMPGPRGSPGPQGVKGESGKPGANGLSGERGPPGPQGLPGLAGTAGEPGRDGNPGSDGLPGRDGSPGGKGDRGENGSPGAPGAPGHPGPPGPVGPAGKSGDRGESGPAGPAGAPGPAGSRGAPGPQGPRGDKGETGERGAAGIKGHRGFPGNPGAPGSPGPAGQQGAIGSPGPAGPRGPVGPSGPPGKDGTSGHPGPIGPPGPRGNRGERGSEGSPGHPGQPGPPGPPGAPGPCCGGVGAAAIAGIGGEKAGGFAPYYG
Procedure: as §1, §3, §4

elastin (bovine) = biological target: T6, elastin (bovine) (bovine, UniProt P04985 27-747, limits assumed); test: plate assay: biotinylated peptide (5.0 mg/ml) on dried ECM coating, streptavidin-488 fluorescence
T6 construct: Coated and dried on plates at 10 ug/cm2
T6 sequence (looked up): T3 sequence (P04985 27-747)
Procedure: as §1, with “pig/cm²)” for “pig/cm^2)”
as §2, with “N-termini” for “Hyaluronic acid, collagens I, II, III, and IV, elastin, and Geltrex were coated onto 96-well black plates (medium binding affinity) at 10 μg/cm^2 and were dried in milli-Q water at room temperature. N-termini”

[6] = biological target: T7, collagen type III (human) (human, UniProt P02461 154-1221); test: as above
T7 construct: III (human)'; Coated and dried on plates at 10 ug/cm2; also called collagen III
T7 sequence (looked up): T5 sequence (P02461 154-1221 limits assumed)
Procedure: as §1, with “pig/cm²)” for “pig/cm^2)”
as §2, with “N-termini” for “Hyaluronic acid, collagens I, II, III, and IV, elastin, and Geltrex were coated onto 96-well black plates (medium binding affinity) at 10 μg/cm^2 and were dried in milli-Q water at room temperature. N-termini”

binding to hyaluronic acid with increasing concentrations of peptide (fluorescence intensity) ([1]; 0-10 mg/ml peptide, PBS pH 7.4, 37° C., HA coating 10 μg/cm^2, FIG. 3): increases dramatically
binding to hyaluronic acid in specificity testing [2]: binds
binding to collagen type II (collagen type II): moderately
binding to collagen type IV (collagen type IV): moderately
binding to elastin (elastin): moderately
binding to Geltrex (Geltrex): moderately
specificity of binding to ECMs [3]: lowest specificity
Molecule: TNLRNKYTFLARARANLAVRNKQNIKS [BHP4, variant of BHP3]
HA binding, overall assessment ([1]; summary and discussion statements): comparable binding; also recorded: HA specific and robust binders
Ellipticity ratio (222 nm/208 nm) [4]: 0.81
Ellipticity 208 nm [4]: −107
Ellipticity 222 nm [4]: −86.6
wavelength Minimum of CD profile [4]: 226 nm
wavelength Minimum of CD profile ([4]; 20% TFE): 225 nm
TEM characterization, Phosphate Buffered Saline (i) [5]: form fibers with many striations that form larger fibers and the larger fibers tend to form a mesh network
nanofiber formation in TEM, overall ([5]; both PBS and sodium cacodylate): consistent nanofibers; also recorded: predominantly form fibers with striations and furthermore form a mesh network

binding to collagen type I (collagen type I): predominantly
binding to collagen type II (collagen type II): predominantly
binding to collagen type III (collagen type III): predominantly
binding to elastin (elastin): predominantly
binding to the ECMs (for 17x-3: the ECMs other than hyaluronic acid) [3]: moderate binding
Molecule: TKAKIKHSVKLKAKLRIKLVKRI [Peptide 10K, five B(X7)B domains in 23 residues]
Ellipticity ratio (222 nm/208 nm) [4]: 0.67
Ellipticity 208 nm [4]: −113
Ellipticity 222 nm [4]: −75.3
wavelength Minimum of CD profile [4]: 224 nm
Ellipticity ratio (222 nm/208 nm) ([4]; 20% TFE): 0.83
Ellipticity 208 nm ([4]; 20% TFE): −235
Ellipticity 222 nm ([4]; 20% TFE): −194
wavelength Minimum of CD profile ([4]; 20% TFE): 223 nm
TEM characterization, Phosphate Buffered Saline (i) [5]: No structure

binding result (elastin (bovine)): binds
binding result [6]: binds
B1: Peptide 10K (peptide)
peptide: Biotin-TKAKIKHSVKLKAKLRIKLVKRI-OH
SMILES: CC[C@H](C)[C@H](NC(=O)[C@H](CCCNC(=N)N)NC(=O)[C@H](CCCCN)NC(=O)[C@@H](NC(=O)[C@H](CC(C)C)NC(=O)[C@H](CCCCN)NC(=O)[C@@H](NC(=O)[C@H](CCCNC(=N)N)NC(=O)[C@H](CC(C)C)NC(=O)[C@H](CCCCN)NC(=O)[C@H](C)NC(=O)[C@H](CCCCN)NC(=O)[C@H](CC(C)C)NC(=O)[C@H](CCCCN)NC(=O)[C@@H](NC(=O)[C@H](CO)NC(=O)[C@H](Cc1c[nH]cn1)NC(=O)[C@H](CCCCN)NC(=O)[C@@H](NC(=O)[C@H](CCCCN)NC(=O)[C@H](C)NC(=O)[C@H](CCCCN)NC(=O)[C@@H](NC(=O)CCCC[C@@H]1SC[C@@H]2NC(=O)N[C@@H]21)[C@@H](C)O)[C@@H](C)CC)C(C)C)[C@@H](C)CC)C(C)C)C(=O)O
notes: 23-residue designed peptide; biotinylated synthetic peptide
